According to PMC11161652, “ASXLs binding to the PHD2/3 fingers of MLL4 provides a mechanism for the recruitment of BAP1 to active enhancers” (Nature Communications, 2024):
Like-named read-outs stand apart in the source and are kept apart here. Ends that are not written are not given here.

T1: MLL4PHD2/3 (Homo sapiens, UniProt O14686)
T1 construct: MLL4 (aa 227-324); GST (N, cleaved yes); made in house; host or cells: E. coli BL21-CodonPlus
T1 sequence (O14686 227-324): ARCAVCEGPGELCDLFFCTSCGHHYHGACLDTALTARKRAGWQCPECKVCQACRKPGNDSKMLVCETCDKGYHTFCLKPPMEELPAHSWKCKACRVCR

T2: MLL3PHD2/3 (Homo sapiens, UniProt Q8NEZ4)
T2 construct: human MLL3 (aa 342-439); GST (N, cleaved yes); made in house; host or cells: E. coli BL21-CodonPlus
T2 sequence (Q8NEZ4 342-439): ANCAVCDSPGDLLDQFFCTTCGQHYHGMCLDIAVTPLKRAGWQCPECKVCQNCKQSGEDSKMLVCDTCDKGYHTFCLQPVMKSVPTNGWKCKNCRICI

T3: PHD2 and PHD3 fingers of human MLL3 (aa 342-439) (human, UniProt Q8NEZ4 342-439)
T3 chain: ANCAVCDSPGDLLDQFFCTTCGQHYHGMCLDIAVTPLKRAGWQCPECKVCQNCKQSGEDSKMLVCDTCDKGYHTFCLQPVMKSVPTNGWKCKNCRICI

T4: PHD2 and PHD3 fingers of human MLL4 (aa 227-324) (human, UniProt O14686 227-324)
T4 construct: PHD2 and PHD3 fingers of human MLL4 (KMT2D), aa 227-324; also called MLL4_(PHD2/3); MLL4 PHD2/3; source: E. coli BL21-CodonPlus, purified (glutathione agarose, PreScission cleavage; unlabeled proteins also SEC)
T4 sequence (looked up): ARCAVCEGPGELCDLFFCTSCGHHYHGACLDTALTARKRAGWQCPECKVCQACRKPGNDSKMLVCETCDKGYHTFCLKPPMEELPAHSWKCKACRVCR

T5: PHD2 and PHD3 fingers of human MLL3 (aa 342-439) (human, UniProt Q8NEZ4 342-439)
T5 construct: PHD2 and PHD3 fingers of human MLL3 (KMT2C), aa 342-439; 15N-labelled for NMR titrations; also used unlabelled as the titrant against MLL3 PHD4; also called MLL3_(PHD2/3); MLL3 PHD2/3; source: E. coli BL21-CodonPlus, purified (glutathione agarose, PreScission cleavage; unlabeled proteins also SEC)
T5 sequence (looked up): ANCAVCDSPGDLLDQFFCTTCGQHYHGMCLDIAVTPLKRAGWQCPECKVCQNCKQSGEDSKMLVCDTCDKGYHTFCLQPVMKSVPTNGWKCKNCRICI


What was measured:
[1] = biological target: T1, MLL4PHD2/3; assay: NMR titration binding, WT MLL4PHD2/3; settings: 0.1 mM protein; for binding in NMR titration (CSPs): 1H,15N HSQC, pH 6.8, 298 K, in words
Procedure: (§1) All constructs were expressed in BL21-CodonPlus competent cells.
(§2) For NMR titration experiments, ^1H,^15N HSQC spectra of 0.1 mM uniformly ^15N-labeled WT or mutated MLL4PHD2/3, MLL3PHD2/3 or MLL3PHD4 were recorded while WT or mutated ASXL2 (aa 650-670, 650-664, 656-670) and ASXL3 (aa 1047-1067) peptides (synthesized by SynPeptide) or MLL3PHD2/3 were added stepwise. All experiments were carried out in 20 mM Tris buffer (pH 6.8), 150 mM NaCl, and 3 mM DTT, containing 7% D2O. The dissociation constants (Kds) were determined by a nonlinear least-squares analysis in GraphPad Prism using the equation:1 △δ=△δmaxL+P+Kd−L+P+Kd^2−4PL/2P where [L] is concentration of the peptide, [P] is concentration of the protein, Δδ is the observed chemical shift change, and Δδmax is the normalized chemical shift change at saturation. Normalized chemical shift changes were calculated using the equation Δδ=△δH^2+△sn/5^2 (2), where Δδ is the change in chemical shift in parts per million (ppm).

[2] = biological target: T2, MLL3PHD2/3; assay: NMR titration binding, WT MLL3PHD2/3; settings: 0.1 mM protein
Procedure: as §1, §2

[3] = test system: GST-MLL4PHD2/3; assay: GST pull-down, WT MLL4PHD2/3; format: binding, human; settings: WT GST-MLL4PHD2/3; HEK293FT lysate, 3 h at 4 °C, western blot; n = 3
Procedure: (§3) Pull-down assays were performed by mixing resin-bound GST-MLL3PHD2/3 and GST-MLL4PHD2/3 (wild type and mutants) with lysates of HEK293FT expressing Myc-ASXL1, Myc-ASXL2 or Myc-ASXL2ΔMBH. Pellets of HEK293FT cells transfected with the appropriate pDEST expression construct (15 μg/dish using polyethylenimine (PEI)) were lysed with 10 times their volume of lysis buffer (50 mM Tris pH 7.3, 100 mM NaCl, 1 mM DTT, 1 mM EDTA, 1 mM PMSF, 0.1% Tween20, 1/100 anti-protease (Sigma)) and sonicated with a probe sonicator (Branson digital sonifier 450) calibrated at 40% amplitude for 3–4 rounds during 40–60 s. Lysates were then centrifuged in a Sorvall Lynx 6000 (rotor: F21-8x50Y) at 15,000 RPM during 20 min. Approximatively 9 μg of purified GST-fusion proteins bound to GSH resin (Sigma, G4510) were used for each condition. Final volume of GSH resin was adjusted to 30 μl per condition with empty GSH beads and incubated with 1.5 mL of HEK293FT lysate expressing Myc-ASXL1, Myc-ASXL2 or Myc-ASXL2ΔMBH for 3 h at 4 °C on a rotative system. A fraction of the reaction mixture (80 μL) was collected as the input. After the incubation, beads were washed 5 times and mixed with 100 μL of Laemmli buffer. Samples were loaded on 8% or 15% SDS-acrylamide gels and processed for western blotting.

[4] = test system: MLL4PHD2/3 or MLL3PHD2/3 mutants; assay: GST pull-down, mutated MLL3/4PHD2/3; format: binding, human; settings: mutated GST-MLL3/4PHD2/3; HEK293FT lysate, 3 h at 4 °C, western blot; n = 3
Procedure: as §3

[5] = test system: GST-MLL3PHD2/3; assay: GST pull-down, WT MLL3PHD2/3; format: binding, human; settings: WT GST-MLL3PHD2/3; HEK293FT lysate, 3 h at 4 °C, western blot; n = 3
Procedure: as §3

[6] = biological target: T3, PHD2 and PHD3 fingers of human MLL3 (aa …)
[7] = biological target: T4, PHD2 and PHD3 fingers of human MLL4 (aa …); assay: not stated; fluorescence spectroscopy or NMR: the legends of Fig. 3c and Fig. 4b say that values marked (a) are from NMR and the others from fluorescence; the text does not tell which for these pairs; settings: both partners purified
[8] = biological target: T5, PHD2 and PHD3 fingers of human MLL3 (aa …); assay: other fluorescence titration; tryptophan fluorescence, 25 °C; 1.0 µM MLL4 PHD2/3 or MLL3 PHD2/3 with increasing peptide; excitation 295 nm; 20 mM Tris pH 7.2, 150 mM NaCl, 1 mM TCEP, 0.02% Tween20; average of three measurements; settings: both partners purified
[9] = biological target: T4, PHD2 and PHD3 fingers of human MLL4 (aa …); assay: as above; settings: both partners purified
[10] = NMR, 1H,15N HSQC titration, 20 mM Tris pH 6.8, 150 mM NaCl, 298 K

Kd [8] [µM] | Kd [9] [µM] | Molecule | binding in NMR titration (CSPs) [1] | further results
 |  | ASXL1 peptide: ASXL1 peptide; the ASXL1 region encompassing residues 607-627 (GWTGARTLADIKARALQVRGA) | large CSPs, confirming formation of the complex | 
 |  | ASXL2 K661E: K661E mutated ASXL2 peptide (residues 650-670) (NRTGARTLADIEAKAQLVKAQ) | abrogated binding | binding in NMR titration (CSPs) ([2]; 1H,15N HSQC, pH 6.8, 298 K, in words): did not form the complex; Kd [2, 10]: no binding; Kd [1, 10]: no binding
 |  | RNTGARTLADIKARAQQARAQ [ASXL3 1047-1067] | large CSPs, confirming formation of the complex | 
 |  | full-length ASXL1: full-length ASXL1 expressed in HEK293FT cells |  | association in pull-down [3]: detected; association in pull-down [4]: not with the MLL4PHD2/3 or MLL3PHD2/3 mutants; association in pull-down [5]: detected
 |  | NRTGARTLADEKAKAQLVKAQ (peptide, UniProt Q76L83 650-670, looked up, ASXL2, residues 650-670; also called I660E mutant of ASXL2; source: synthetic peptide (SynPeptide)) [ASXL2 peptide (aa 650-670) I660E] |  | Kd [6]: 84 µM; Kd [7]: 1100 µM; binding result [8]: binds
0.9 | 1.4 | RNTGARTLADIKARAQQARAQ (peptide, UniProt Q9C0F0 1047-1067, looked up, ASXL3, residues 1047-1067; also called ASXL3 (aa 1047-1067); source: synthetic peptide (SynPeptide)) [ASXL3 peptide (aa 1047-1067)] |  | 
28 | 98 | NRTGARTLADIKAKA (peptide, UniProt Q76L83 650-664, looked up, ASXL2, residues 650-664; also called ASXL2_(650-664); ASXL2 (aa 650-664); source: synthetic peptide (SynPeptide)) [ASXL2 peptide, residues 650-664] |  | 
133 | 700 | TLADIKAKAQLVKAQ (peptide, UniProt Q76L83 656-670, looked up, ASXL2, residues 656-670; also called ASXL2_(656-670); ASXL2 (aa 656-670); source: synthetic peptide (SynPeptide)) [ASXL2 peptide, residues 656-670] |  | 
